Measured values as given in patent publication US8389575B2, “Control of enzymatic peracid generation” (E.I. du Pont de Nemours and Company, priority 2008, dated 2013).

Experiment: Peracetic acid production by Thermotoga neapolitana perhydrolase, control by bicarbonate buffer concentration
Assay type: biochemical
Settings: 100 mM triacetin
Experimental: A cell extract of an E. coli transformant expressing perhydrolase from Thermotoga neapolitana (KLP18/pSW196) was prepared by passing a suspension of cell paste (20 wt % wet cell weight) in 0.05 M potassium phosphate buffer (pH 7.0) containing dithiothreitol (1 mM) twice through a French press having a working pressure of 16,000 psi (˜110 MPa). The crude extract was then centrifuged at 20,000×g to remove cellular debris, producing a clarified cell extract that was assayed for total soluble protein (Bicinchoninic Acid Kit for Protein Determination, Sigma Aldrich catalog #BCA1-KT). The clarified extract was heated for 20 min at 75° C., followed immediately by cooling in an ice/water bath. The resulting mixture was centrifuged to remove precipitated protein, and the supernatant collected and assayed for total soluble protein as before. […] The supernatant was frozen in dry ice and stored at −80° C.
Reactions (10 mL total volume) containing triacetin, hydrogen peroxide and heat-treated, centrifuged cell extract supernatant (prepared as described above) were run at 25° C. using sodium bicarbonate buffer concentrations listed in Tables 7 and 8. A control reaction for each reaction condition was run to determine the concentration of peracetic acid produced by chemical perhydrolysis of triacetin by hydrogen peroxide in the absence of added extract protein. Determination of the concentration of peracetic acid in the reaction mixtures was performed according to the method described by Karst et al., supra. Aliquots (0.040 mL) of the reaction mixture were removed at predetermined times and mixed with 0.960 mL of 5 mM phosphoric acid in water; adjustment of the pH of the diluted sample to less than pH 4 immediately terminated the reaction. The resulting solution was filtered using an ULTRAFREE® MC-filter unit (30,000 Normal Molecular Weight Limit (NMWL), Millipore cat #UFC3LKT 00) by centrifugation for 2 min at 12,000 rpm. An aliquot (0.100 mL) of the resulting filtrate was transferred to L5-mL screw cap HPLC vial (Agilent Technologies, Palo Alto, Calif.; #5182-0715) containing 0.300 mL of deionized water, then 0.100 mL of 20 mM MTS (methyl-p-tolyl-sulfide) in acetonitrile was added, the vials capped, and the contents briefly mixed prior to a 10 min incubation at ca. 25° C. in the absence of light. To each vial was then added 0.400 mL of acetonitrile and 0.100 mL of a solution of triphenylphosphine (TPP, 40 mM) in acetonitrile, the vials re-capped, and the resulting solution mixed and incubated at ca. 25° C. for 30 min in the absence of light. To each vial was then added 0.100 mL of 10 mM N,N-diethyl-m-toluamide (DEET; HPLC external standard) and the resulting solution analyzed by HPLC as described below.
Supelco Discovery C8 column (10-cm×4.0-mm, 5 μm) (cat. #569422-U) w/precolumn Supelco Supelguard Discovery C8 (Sigma-Aldrich; cat #59590-U); 10 microliter injection volume; gradient method with CH3CN (Sigma-Aldrich; #270717) and deionized water at 1.0 mL/min and ambient temperature:
The peracetic acid concentrations produced in 1 min, 5 min and 30 min when using either 250 mM or 100 mM hydrogen peroxide are listed in Table 7 and Table 8, respectively.

B1: Thermotoga neapolitana perhydrolase: acetyl xylan esterase with perhydrolase activity from Thermotoga neapolitana (SEQ ID NO: 14), cell extract of E. coli KLP18/pSW196 (protein, listed as Thermotoga neapolitana)
chain: MAFFDMPLEELKKYRPERYEEKDFDEFWRETLKESEGFPLDPVFEKVDFHLKTVETYDVTFSGYRGQRIKGWLLVPKLAEEKLPCVVQYIGYNGGRGFPHDWLFWPSMGYICFVMDTRGQGSGWMKGDTPDYPEGPVDPQYPGFMTRGILDPGTYYYRRVFVDAVRAVEAAISFPRVDSRKVVVAGGSQGGGIALAVSALSNRVKALLCDVPFLCHFRRAVQLVDTHPYVEITNFLKTHRDKEEIVFRTLSYFDGVNFAARAKVPALFSVGLMDTICPPSTVFAAYNHYAGPKEIRIYPYNNHEGGGSFQAIEQVKFLKRLFEEG
For B1, the “PAA (ppm), 1 min” value (NaHCO3 0 mM, initial pH 5.0, 1 min, 100 mM H2O2, 50 μg/mL heated extract total protein) was 0 ppm, the “PAA (ppm), 1 min” value (NaHCO3 0 mM, initial pH 5.0, 1 min, 250 mM H2O2, 50 μg/mL heated extract total protein) was 161 ppm and the “PAA (ppm), 5 min” value (NaHCO3 0 mM, initial pH 5.0, 5 min, 100 mM H2O2, 50 μg/mL heated extract total protein) was 29 ppm. For the same molecule, the “PAA (ppm), 5 min” value (NaHCO3 0 mM, initial pH 5.0, 5 min, 250 mM H2O2, 50 μg/mL heated extract total protein) was 152 ppm, the “PAA (ppm), 30 min” value (NaHCO3 0 mM, initial pH 5.0, 30 min, 100 mM H2O2, 50 μg/mL heated extract total protein) was 11 ppm and the “PAA (ppm), 30 min” value (NaHCO3 0 mM, initial pH 5.0, 30 min, 250 mM H2O2, 50 μg/mL heated extract total protein) was 180 ppm. For the same molecule, the “PAA (ppm), 1 min” value (NaHCO3 1.0 mM, initial pH 6.0, 1 min, 100 mM H2O2, 50 μg/mL heated extract total protein) was 167 ppm, the “PAA (ppm), 1 min” value (NaHCO3 1.0 mM, initial pH 6.0, 1 min, 250 mM H2O2, 50 μg/mL heated extract total protein) was 511 ppm and the “PAA (ppm), 5 min” value (NaHCO3 1.0 mM, initial pH 6.0, 5 min, 100 mM H2O2, 50 μg/mL heated extract total protein) was 152 ppm. For the same molecule, the “PAA (ppm), 5 min” value (NaHCO3 1.0 mM, initial pH 6.0, 5 min, 250 mM H2O2, 50 μg/mL heated extract total protein) was 610 ppm, the “PAA (ppm), 30 min” value (NaHCO3 1.0 mM, initial pH 6.0, 30 min, 100 mM H2O2, 50 μg/mL heated extract total protein) was 176 ppm and the “PAA (ppm), 30 min” value (NaHCO3 1.0 mM, initial pH 6.0, 30 min, 250 mM H2O2, 50 μg/mL heated extract total protein) was 608 ppm. For the same molecule, the “PAA (ppm), 1 min” value (NaHCO3 2.5 mM, initial pH 6.5, 1 min, 100 mM H2O2, 50 μg/mL heated extract total protein) was 291 ppm, the “PAA (ppm), 1 min” value (NaHCO3 2.5 mM, initial pH 6.5, 1 min, 250 mM H2O2, 50 μg/mL heated extract total protein) was 718 ppm and the “PAA (ppm), 5 min” value (NaHCO3 2.5 mM, initial pH 6.5, 5 min, 100 mM H2O2, 50 μg/mL heated extract total protein) was 510 ppm. The “PAA (ppm), 5 min” value (NaHCO3 2.5 mM, initial pH 6.5, 5 min, 250 mM H2O2, 50 μg/mL heated extract total protein) was 1242 ppm, the “PAA (ppm), 30 min” value (NaHCO3 2.5 mM, initial pH 6.5, 30 min, 100 mM H2O2, 50 μg/mL heated extract total protein) was 488 ppm and the “PAA (ppm), 30 min” value (NaHCO3 2.5 mM, initial pH 6.5, 30 min, 250 mM H2O2, 50 μg/mL heated extract total protein) was 1179 ppm. For the same molecule, the “PAA (ppm), 1 min” value (NaHCO3 5.0 mM, initial pH 6.5, 1 min, 100 mM H2O2, 50 μg/mL heated extract total protein) was 377 ppm, the “PAA (ppm), 1 min” value (NaHCO3 5.0 mM, initial pH 6.5, 1 min, 250 mM H2O2, 50 μg/mL heated extract total protein) was 866 ppm and the “PAA (ppm), 5 min” value (NaHCO3 5.0 mM, initial pH 6.5, 5 min, 100 mM H2O2, 50 μg/mL heated extract total protein) was 955 ppm. The “PAA (ppm), 5 min” value (NaHCO3 5.0 mM, initial pH 6.5, 5 min, 250 mM H2O2, 50 μg/mL heated extract total protein) was 1894 ppm, the “PAA (ppm), 30 min” value (NaHCO3 5.0 mM, initial pH 6.5, 30 min, 100 mM H2O2, 50 μg/mL heated extract total protein) was 989 ppm and the “PAA (ppm), 30 min” value (NaHCO3 5.0 mM, initial pH 6.5, 30 min, 250 mM H2O2, 50 μg/mL heated extract total protein) was 1931 ppm. For the same molecule, the “PAA (ppm), 1 min” value (NaHCO3 10 mM, initial pH 7.0, 1 min, 250 mM H2O2, 50 μg/mL heated extract total protein) was 1042 ppm, the “PAA (ppm), 5 min” value (NaHCO3 10 mM, initial pH 7.0, 5 min, 250 mM H2O2, 50 μg/mL heated extract total protein) was 2334 ppm and the “PAA (ppm), 30 min” value (NaHCO3 10 mM, initial pH 7.0, 30 min, 250 mM H2O2, 50 μg/mL heated extract total protein) was 2384 ppm. For the same molecule, the “PAA (ppm), 1 min” value (NaHCO3 10 mM, initial pH 8.1, 1 min, 100 mM H2O2, 50 μg/mL heated extract total protein) was 418 ppm, the “PAA (ppm), 5 min” value (NaHCO3 10 mM, initial pH 8.1, 5 min, 100 mM H2O2, 50 μg/mL heated extract total protein) was 1035 ppm and the “PAA (ppm), 30 min” value (NaHCO3 10 mM, initial pH 8.1, 30 min, 100 mM H2O2, 50 μg/mL heated extract total protein) was 1633 ppm. For the same molecule, the “PAA (ppm), 1 min” value (NaHCO3 25 mM, initial pH 8.1, 1 min, 100 mM H2O2, 50 μg/mL heated extract total protein) was 497 ppm, the “PAA (ppm), 1 min” value (NaHCO3 25 mM, initial pH 8.1, 1 min, 250 mM H2O2, 50 μg/mL heated extract total protein) was 1037 ppm and the “PAA (ppm), 5 min” value (NaHCO3 25 mM, initial pH 8.1, 5 min, 100 mM H2O2, 50 μg/mL heated extract total protein) was 1319 ppm. For the same molecule, the “PAA (ppm), 5 min” value (NaHCO3 25 mM, initial pH 8.1, 5 min, 250 mM H2O2, 50 μg/mL heated extract total protein) was 2655 ppm, the “PAA (ppm), 30 min” value (NaHCO3 25 mM, initial pH 8.1, 30 min, 100 mM H2O2, 50 μg/mL heated extract total protein) was 2095 ppm and the “PAA (ppm), 30 min” value (NaHCO3 25 mM, initial pH 8.1, 30 min, 250 mM H2O2, 50 μg/mL heated extract total protein) was 3503 ppm.
